The text below walks through data of patent publication US20220169720.

The subject of data set [1] is Rubicon (RUN domain protein as Beclin-1 interacting and cysteine-rich containing), wild-type.
The test system of data set [2] is Rubicon mutant's 117-189 amino acids (phosphor-null mutants, single serine/threonine substituted with alanine).

Rubicon (RUN domain protein as Beclin-1 interacting and cysteine-rich containing), wild-type, sequence (chain, as listed by the source): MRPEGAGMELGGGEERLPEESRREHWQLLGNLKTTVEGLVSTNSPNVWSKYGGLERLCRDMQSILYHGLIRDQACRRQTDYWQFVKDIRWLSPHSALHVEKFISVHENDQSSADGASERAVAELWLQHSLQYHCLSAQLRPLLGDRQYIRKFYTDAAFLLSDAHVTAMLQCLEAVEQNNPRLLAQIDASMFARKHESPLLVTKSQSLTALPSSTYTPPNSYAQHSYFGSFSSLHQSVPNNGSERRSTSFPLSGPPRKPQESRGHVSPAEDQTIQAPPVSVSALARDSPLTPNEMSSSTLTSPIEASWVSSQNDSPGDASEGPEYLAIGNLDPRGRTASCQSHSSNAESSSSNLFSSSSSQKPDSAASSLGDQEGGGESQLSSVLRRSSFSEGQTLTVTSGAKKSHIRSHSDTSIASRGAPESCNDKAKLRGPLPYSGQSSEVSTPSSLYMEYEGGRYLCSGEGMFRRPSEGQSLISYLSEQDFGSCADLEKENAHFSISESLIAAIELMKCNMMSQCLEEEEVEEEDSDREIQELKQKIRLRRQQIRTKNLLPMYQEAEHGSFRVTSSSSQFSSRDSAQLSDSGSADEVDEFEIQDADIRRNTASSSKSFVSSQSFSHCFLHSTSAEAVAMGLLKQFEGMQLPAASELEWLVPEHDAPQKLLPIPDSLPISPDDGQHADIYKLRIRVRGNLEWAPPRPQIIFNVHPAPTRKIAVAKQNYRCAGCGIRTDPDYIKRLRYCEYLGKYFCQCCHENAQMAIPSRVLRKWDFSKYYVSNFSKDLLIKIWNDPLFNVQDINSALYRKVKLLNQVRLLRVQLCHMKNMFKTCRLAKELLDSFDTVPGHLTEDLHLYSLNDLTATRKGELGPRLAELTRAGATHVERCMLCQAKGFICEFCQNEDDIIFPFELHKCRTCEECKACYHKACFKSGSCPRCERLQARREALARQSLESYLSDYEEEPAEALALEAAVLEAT

Turning to “Leucine-rich repeat kinase 2 (LRRK2), wild-type”, in data set [1], the “extent of Rubicon phosphorylation by LRRK2 kinase (kinase assay with wild-type or phosphor-null mutant Rubicon as substrate)” value is “determined T166 and S189 as the consensus LRRK2-specific phosphosites”; the “pT166-Rubicon by ELISA in human neurons transiently over-expressing wild-type (WT) LRRK2” value is 12% and 26% increase in pT166-Rubicon respectively compared to control; the “pT166-Rubicon by ELISA in human neurons with endogenous LRRK2 knocked down” value is listed as 32.4% decrease in pT166-Rubicon compared to control. Also, the “amount of generated ADP as a by-product of LRRK2 kinase activity” value in data set [2] is “Rubicon mutant's 117-189 amino acids significantly decreased LRRK2 kinase activity”.

In the case of mutant LRRK2-G2019S, the “pT166-Rubicon by ELISA in human neurons transiently over-expressing mutant LRRK2-G2019S” value in data set [1] is 12% and 26% increase in pT166-Rubicon respectively compared to control.
